Blank lines part the entries; values can stand above or below the molecule they belong to.
Assays:
Experiment in all cases: crystal structure; in meso (monoolein) crystals, 1.2 M sodium malonate pH 8.0, grown at 22 °C; pentameric form, space group C222_(1); data at 100 K and at room temperature
[1] = target: KR2-H30A (Krokinobacter eikastus)
[2] = target: KR2-D116N (Krokinobacter eikastus)
[3] = target: the molecule itself

stoichiometry N [1]: 5
Molecule: KR2-H30A (natural protein)

stoichiometry N [2]: 5
Molecule: KR2-D116N (natural protein)

B1: light-driven sodium-pumping rhodopsin KR2 from Krokinobacter eikastus (natural protein)
chain: MTQELGNANFENFIGATEGFSEIAYQFTSHILTLGYAVMLAGLLYFILTIKNVDKKFQMSNILSAVVMVSAFLLLYAQAQNWTSSFTFNEEVGRYFLDPSGDLFNNGYRYLNWLIDVPMLLFQILFVVSLTTSKFSSVRNQFWFSGAMMIITGYIGQFYEVSNLTAFLVWGAISSAFFFHILWVMKKVINEGKEGISPAGQKILSNIWILFLISWTLYPGAYLMPYLTGVDGFLYSEDGVMARQLVYTIADVSSKVIYGVLLGNLAITLSKNKELVEANS
modifications: retinal covalently bound to the lysine residue of helix G via the Schiff base
notes: KR2, light-driven Na+-pumping rhodopsin of Krokinobacter eikastus; Pentamer in the crystals grown at pH 8.0; the construct is not described beyond 'KR2 expression plasmid'; also called KR2-WT; WT protein; source: E. coli SE1 (Staby Codon T7), purified (DDM solubilisation, Ni-NTA, SEC)
stoichiometry N [3]: 5

— paper PMC7195465, “Molecular mechanism of light-driven sodium pumping” (Nature Communications, 2020)
